Laboratory results from US10053668B2, “Reprogramming bone endothelial cells for use in bone angiogenesis and osteogenesis” (MAX-PLANCK-GESELLSCHAFT ZUR FÖRDERUNG DER WISSENSCHAFTEN …, priority 2013, dated 2018).
Entries after “also recorded” stand apart in the source; their conditions may differ. Structures can show the parent of a compound that is named as a salt.

B1: Noggin: recombinant Noggin (1967-NG, R&D Systems); secreted protein that binds and antagonises bone morphogenetic proteins (BMPs) (protein, UniProt Q13253 28-232, looked up)
Noggin: QHYLHIRPAPSDNLPLVDLIEHPDPIFDPKEKDLNETLLRSLLGGHYDPGFMATSPPEDRPGGGGGAAGGAEDLAELDQLLRQRPSGAMPSEIKGLEFSEGLAQGKKQRLSKKLRRKLQMWLWSQTFCPVLYAWNDLGSRFWPRYVKVGSCFSKRSCSVPEGMVCKPSKSVHLTVLRWRCQRRGGQRCGWIPIQYPIISECKCSC

Experiments:
[1] = test system: bone endothelial cells (BECs); test: DFM treatment of cultured primary bone endothelial cells, qPCR mRNA analysis; format: cell-based, mouse; conditions: isolated primary bone endothelial cells; DFM 6.25 mg/ml of culture medium, 7 hrs; qPCR vs vehicle
Procedure: Tibiae and femurs from wild-type mice or mice expressing endothelial specific reporters (Flk1 GFP and Cdh5 mtmg mice) or wild-type mice were collected in sterile Ca^2+ and Mg^2+ free PBS, crushed with mortar and pestle, digested with Collagenase A (Sigma) to obtain a single cell suspension. ECs were then MACS sorted using endomucin antibody (cat. no. SC-65495) and Dynabeads sheep anti-Rat IgG (Invitrogen). Sorted ECs were then plated on dishes coated with fibronectin and cultured in endothelial cell growth medium (EBM-2, Clonetics; Lonza) supplemented with EGM-2 SingleQuots (CC-4176, Clonetic; Lonza). At first passage, cells were again MACS sorted with endomucin antibody and plated for culture. Cells were fed every third day and passaged upon confluency. […]
For the analysis of mRNA expression levels in type H or type L endothelium, CD31^hi/Emcn^hi and CD31^lo/Emcn^lo cells were sorted by FACS directly into the lysis buffer of the RNeasy Mini Kit (QIAGEN). […] Quantitative PCR (qPCR) was performed using TaqMan gene expression assays on ABI PRISM 7900HT Sequence Detection System. […]
For the analysis of mRNA expression levels, pure total bone endothelial cells were flow-sorted directly into the lysis buffer of RNeasy Mini Kit (QIAGEN). […] Quantitative PCR (qPCR) was performed using TaqMan gene expression assays on ABI PRISM 7900HT Sequence Detection System. […]

[2] = test system: type H endothelium (CD31^hi/Emcn^hi vessels); test: DFM treatment of aged mice, CD31/Osterix immunostaining of tibia sections; format: in vivo; conditions: aged 64 to 70 week-old mice; DFM i.p. every alternate day, 15 mg/ml per mouse, four weeks; vs vehicle control
Text: 3-4 weeks old male C57BL/6J mice were used for experiments involving analysis of juvenile mice. For the characterization of changes during aging, 9-11 week-old and 60-70 week-old C57BL/6J males were used as adults and aged mice, respectively. All EC-specific gene deletions were generated using Cdh5(PAC)-CreERT2 transgenic mice, which were interbred with conditional mutants carrying loxP-flanked Hif1α alleles (Hif1α^lox/lox). For experiments, Cdh5(PAC)-CreERT2^T/+ Hif1α^lox/lox were mated with Hif1α^lox/lox females. To induce Cre activity and gene deletion, pups were injected with 500 μg tamoxifen (Sigma, T5648) intraperitoneally everyday from postnatal day (P) 10 to P14. Femurs and tibiae from Cdh5(PAC)-CreERT2^T/+ Hif1α^lox/lox (Hif1α^iΔEC) mutants and Cre-negative (Hif1α^lox/lox) controls were collected on P28 after euthanasia. The same methodology was followed for gene deletion experiments involving conditional Vhl mice. For the specific genetic labeling of metaphyseal vasculature Cdh5(PAC)-CreERT2^T/+ mice were mated with Rosa26-mG/mT reporter line. At P29, Cdh5(PAC)-CreERT2^T/+/R26-mG/mT^d/+ mice received a single dose of 50 μg tamoxifen and were analyzed either 24 hrs (1 day) later or 40 days later. […]
For phenotypic analysis, mutant and littermate control samples were always processed, sectioned, stained, imaged and analysed together at the same conditions and settings. […]

long bone = test: DFM treatment of aged mice, qPCR of osteoprogenitor and osteoblast markers in long bone; format: in vivo, mouse; conditions: DFM-treated vs control
Procedure: For DFM treatment, freshly prepared deferoxamine mesylate (Sigma) in water was injected intraperitoneally every alternate day at the dose of 15 mg/ml per mouse over four weeks. For μ-CT analysis, this treatment was continued for five weeks. Animals in the control group were injected with same amount of sterile water.
For the analysis of mRNA expression levels in type H or type L endothelium, CD31^hi/Emcn^hi and CD31^lo/Emcn^lo cells were sorted by FACS directly into the lysis buffer of the RNeasy Mini Kit (QIAGEN). Total RNA was isolated according to manufacturer's protocol. A total of 100 ng RNA per reaction was used to generate cDNA with the iScript cDNA Synthesis System (Bio-Rad). Quantitative PCR (qPCR) was performed using TaqMan gene expression assays on ABI PRISM 7900HT Sequence Detection System. The FAM-conjugated TaqMan probes Tgfb1, Tgfb3, Fgf1, Pdgfa, Pdgfb and Kitl were used along with TaqMan Gene Expression Master Mix (Applied Biosystems). Gene expression assays were normalized to endogenous VIC-conjugated Actb probes as standard. For analysis of mRNA expression levels from whole bones, dissected femurs were immediately crushed finely, digested with collagenase, centrifuged to obtain a pellet, which was then lysed into lysis buffer of RNeasy Mini Kit (QIAGEN). […]

[3] = DFM treatment of aged mice, μ-CT analysis of tibia; format: in vivo, mouse; conditions: 6 weeks of DFM treatment, compared to aged control mice
Procedure: […] […] Animals in the control group were injected with same amount of sterile water.
Tibiae were collected, and the attached soft tissue was removed thoroughly and fixed in 4% paraformaldehyde. The fixed tibiae were analyzed using micro-CT (μCT 35) and software IPL V5.15 at Scanco Medical AG, Switzerland. A voxel size of 12 μm was chosen in all three spatial dimensions. For each sample, 148 from 232 slices were evaluated covering a total of 1.776 mm at a voltage of 70kVp, intensity 114 μA, integration time 1200 ms.

Rbpj^iΔEC mice [4] = test: Systemic recombinant Noggin in Rbpj^iΔEC mice, immunostaining of tibia sections; format: in vivo, mouse
Text: For Rbpj deletion in the postnatal vasculature, mice carrying loxP-flanked Rbpj gene (Rbpj^floxed) were interbred with mice expressing endothelial specific tamoxifen inducible CreERT2 i.e. Cdh5(PAC)-CreERT2. The males with genotype Rbpj^floxed/floxed Cdh5(PAC)-CreERT2^T/+ were interbred with Rbpj^floxed/floxed females to generate litters with Rbpj^floxed/floxed Cdh5(PAC)-CreERT2^T/+ (Rbpj^iΔEC) and Rbpj^floxed/floxed (control) genotypes. To induce Cre activity and gene deletion, all the litters were injected with 500 μg tamoxifen (Sigma, T5648) intraperitoneally everyday from P10 to P14. Femur and tibia were collected from these animals for analysis on P28 after euthanasia. The same methodology was followed for all gene deletion experiments of Fbxw7 ^iΔEC, Dll^iΔEC, Dll4^iΔEC, Jag1^iΔEC and Rbpj^iΔOB. For osteoblast specific loss of function experiments, Col1α1-CreERT2 mice (embryos purchased from Institut Clinique de la Souris, France) were interbred with Rbpj^floxed/floxed mice. Further, Rbpj floxed/floxed Col1a1-CreERT2^T/+ males were interbred with Rbpj^floxed/floxed females to generate litters with Rbpj^floxed/floxed Col1aCreERT2^T/+ (Rbpj^iΔOB) and Rbpj^floxed/floxed (control) genotypes.
(§1) For experiments involving Noggin treatment, both control and Rbpj^iΔEC mice were injected intraperitoneally once daily with 500 μg/kg recombinant Noggin (1967-NG, R&D Systems) dissolved in PBS in a volume of 50 μl per dose. Another set of control and Rbpj^iΔEC mice was injected with 50ul PBS for experimental control. All protein injections were done from P15 to P27, after tamoxifen treatment (P10-P14) before the day of analysis (P28).
Freshly dissected bone tissues collected from wild-type mice or from mutants and their control littermates were immediately fixed in ice-cold 4% paraformaldehyde solution for 4 hrs. Decalcification was carried out with 0.5M EDTA at 4° C. with constant shaking and decalcified bones were immersed into 20% sucrose and 2% polyvinylpyrrolidone (PVP) solution for 24 hr. Finally, the tissues were embedded and frozen in 8% gelatin (porcine) in presence of 20% sucrose and 2% PVP. For immunofluorescent stainings and morphological analyses, sections were generated using low-profile blades on a Leica CM3050 cryostat.
For phenotypic analysis, mutant and littermate control samples were always processed, sectioned, stained, imaged and analysed together at the same conditions and settings. For immunostaining, bone sections were air-dried, permeabilised for 10 min in 0.3% Triton X-100, blocked in 5% donkey serum at room temperature for 30 min, and probed with the primary antibodies diluted in 5% donkey serum in PBS for 2 hr at room temperature (RT) or overnight at 4° C.
Following are the details of primary antibodies used: Endomucin (sc-65495, Santa Cruz) used at 1:100 dilution; Pecam1 conjugated to Alexa fluor 488 (FAB3628G, R&D Systems) used at dilution 1:100; Pecam1 (553370, BD Pharmingen) used at 1:100 dilution; Osterix (sc-22536-R, Santa Cruz) used at dilution 1:200; Runx2 (MAB2006, R&D Systems) used at dilution 1:200; alpha SMA-Cy3 (C6198, Sigma) used at dilution 1:100; Hif1α (ab65979, Abcam) used at dilution 1:100; Collagen type 1 (AB675P; Millipore); Osteopontin (AF808, R&D Systems) used at dilution of 1:200, Mct4 (sc-50329 Santa Cruz) used at dilution of 1:100 and Glut1 (07-1401, Millipore) used at dilution of 1:100, NG2 Chondroitin Sulphate Proteoglycan (AB5320, Millipore) used at a dilution of 1:100.

Rbpj^iΔEC mice [5] = test: Systemic recombinant Noggin in Rbpj^iΔEC mice, calcein double labelling; format: in vivo, mouse; conditions: Noggin 500 μg/kg i.p. once daily P15 to P27, 7 day interval
Procedure: as §1
Calcein double labeling was performed to calculate mineral apposition rate (MAR).
Mice were given intraperitoneal injections of 10 mg/kg calcein (Sigma, C0875) dissolved in 2% sodium bicarbonate solution at 10th day and 3rd day before euthanasia. Bones were fixed in 4% PFA, embedded in 8% gelatin and 2% PVP and cryosectioned. Single plane images were acquired from the sections using LSM 780 (Carl Zeiss). Mineral Apposition Rate (MAR) is the amount of bone formed during a particular time interval. It is calculated using the distance between the midpoints of two labels divided by time interval (7days).

[6] = test system: murine mesenchymal progenitors; test: Osteoblastic differentiation of cultured murine mesenchymal progenitors with Noggin; format: cell-based, mouse; conditions: in vitro, recombinant Noggin
[7] = Rbpj^iΔEC mice, Noggin 500 μg/kg i.p. once daily P15 to P27, analysis P28, vs saline-treated mutants

Molecule | expression of growth factor mRNAs Pdgfa, Pdgfb, Fgf1, Tgfb1, Tgfb3 [1] | transcripts for CD31 and Endomucin [1] | Osterix-positive cells (osteoprogenitors) in association with type H vessels [2] | type H endothelium (CD31^hi/Emcn^hi vessels) in long bone [2] | expression levels of mRNAs Sp7, Bglap and lbsp in long bone (long bone) | bone mass (μ-CT) [3] | Endomucin staining intensity (Rbpj^iΔEC mice [4]; Noggin-treated Rbpj^iΔEC tibia sections) | abundance of Runx2+ early osteoprogenitors in metaphysis (Rbpj^iΔEC mice [4]; [7]) | number of Osterix+ (Osx+) cells in metaphysis (Rbpj^iΔEC mice [4]; [7]) | organization of the Rbpj^iΔEC metaphysis (Rbpj^iΔEC mice [4]; [7]) | organization of the Rbpj^iΔEC bone vasculature (endothelial column and arch structures) (Rbpj^iΔEC mice [4]; Rbpj^iΔEC mice, Noggin 500 μg/kg i.p. once daily P15 to P27, endomucin immunostaining) | trabecular bone formation (osteopontin immunostaining) (Rbpj^iΔEC mice [4]; Rbpj^iΔEC mice, recombinant Noggin vs Saline) | bone formation and mineral apposition rate (Rbpj^iΔEC mice [5]) | bone formation and mineral apposition rate (Rbpj^iΔEC mice [5]; listed as noggin) | differentiation of primary mesenchymal cells into osteoblasts [6] | alkaline phosphatase (ALP) expression ([6]; 28 days of differentiation) | mineral nodule formation (Alizarin staining; osteoblast maturation) ([6]; 28 days of differentiation)
CC(=O)N(O)CCCCCNC(=O)CCC(=O)N(O)CCCCCNC(=O)CCC(=O)N(O)CCCCCN [DFM, deferoxamine mesylate] | induction; also recorded: increase | up regulation | induces; also recorded: emergence | induces; also recorded: substantial expansion | significantly increased | significant increase |  |  |  |  |  |  |  |  |  |  | 
B1 |  |  |  |  |  |  | increased | increases | reduced; also recorded: reduces the number of Osterix+ cells to control levels | restores | partially restored | partial restoration | restored; also recorded: significantly restores | restores | Inhibition; also recorded: inhibits | enhanced; also recorded: maintained even after 28 days | supressed; also recorded: delayed
